B1: NP_116010.1 (parent)
chain: HSLRAVSTDPPHHDHHDEFCLMP
B2: BCL2L13 (parent)
chain: MASSSTVPLGFHYETKYVVLSYLG

How the values were obtained:
Assay in all cases: protein stability index of a GFP-peptide fusion (GPS, HEK-293T) (PSI 1-6); higher = more stable
[1] = variants of: B1; conditions: c terminus: native
[2] = variants of: B1; conditions: c terminus: native; remark: listed apart in the source
[3] = variants of: B2; conditions: c terminus: a fixed tail appended

Variant | protein stability index [1] | protein stability index [2] | protein stability index [3]
C20R | 4.76 | 3.55 | 
C20L | 4.58 | 3.49 | 
C20Y |  | 2.92 | 
C20G | 2.09 | 3.08 | 
C20P |  | 1.97 | 
C20T | 3.61 | 2.3 | 
C20N | 3.24 | 2.21 | 
C20H | 3.74 | 2.41 | 
C20Q | 2.59 | 1.89 | 
C20S | 2.48 | 2.35 | 
C20I | 4.33 | 3.11 | 
C20V | 4.51 | 3.09 | 
C20W | 3.48 | 3.13 | 
C20D | 3.8 | 2.69 | 
C20M | 3.14 | 2.16 | 
C20A | 2.8 | 2.05 | 
C20E | 2.5 | 2.34 | 
C20K | 4.78 | 4.4 | 
C20F | 4.5 | 3.54 | 
H1V |  | 1.77 | 
M22P |  | 2.68 | 
M22T |  | 3.4 | 
M22G |  | 1.79 | 
M22C |  | 2.48 | 
M22A |  | 2.11 | 

Variant | protein stability index [1] | protein stability index [2] | protein stability index [3]
M22S |  | 2.59 | 
M22D |  | 2.11 | 
M22Q | 2.9 | 2.83 | 
M22N |  | 2.52 | 
M22F |  | 1.19 | 
M22H |  | 2.01 | 
M22Y |  | 2.35 | 
M22I |  | 2.04 | 
M22L |  | 1.91 | 
M22E | 3.21 | 2.4 | 
M22W | 2.78 | 2.48 | 
M22R | 3.24 | 2.74 | 
M22V | 2.95 | 2.75 | 
M22K | 4 | 3.36 | 
L3P |  | 2.19 | 
L3F |  | 2.27 | 
H15G | 2.88 | 2.48 | 
H15M | 2.56 | 2.16 | 
H15Q | 2.48 | 2.79 | 
H15D | 3.15 | 2.08 | 
H15K | 2.6 | 2.5 | 
H15L | 2.33 | 1.7 | 
H15F | 2.32 | 2.69 | 
H15T | 2.58 | 1.86 | 
H15I |  | 2.19 | 

Variant | protein stability index [1] | protein stability index [2] | protein stability index [3]
H15V | 2.81 | 3.14 | 
H15A | 2.57 | 1.93 | 
H15R | 2.32 | 2.15 | 
H15N | 2.76 | 2.07 | 
H15E | 3 | 1.67 | 
H15C | 2.52 | 4.24 | 
H15Y | 2.53 | 1.84 | 
H15S | 2.76 | 1.8 | 
H15W | 2.14 | 2.11 | 
F19E | 2.57 | 2.82 | 
F19P | 2.33 | 2.79 | 
F19D |  | 2.37 | 
F19Q | 2.46 | 2.26 | 
F19L | 2.31 | 1.97 | 
F19G | 2.25 |  | 
F19I | 2.2 | 2.89 | 
F19A | 2.57 | 3.6 | 
F19N | 2.27 | 2.42 | 
F19Y | 2.54 | 2.33 | 
F19W | 2.52 | 2.39 | 
F19K | 2.87 | 1.59 | 
F19C | 2.12 |  | 
F19M | 2.46 | 2.6 | 
F19S | 2.47 | 3.38 | 
F19V | 2.41 | 2.17 | 

Variant | protein stability index [1] | protein stability index [2] | protein stability index [3]
F19H |  | 2.8 | 
F19R | 2.5 | 1.8 | 
F19T | 2.67 | 1.95 | 
L21P |  | 2.75 | 
L21T | 3.14 | 2.47 | 
L21M | 2.39 | 2.21 | 
L21F | 2.21 | 2.37 | 
L21E | 3.53 | 2.51 | 
L21G |  | 2.9 | 
L21C | 2.9 | 2.63 | 
L21D |  | 2.46 | 
L21R | 2.33 | 1.99 | 
L21N | 3.18 | 2.84 | 
L21Y | 2.39 | 2.2 | 
L21A | 2.83 | 1.67 | 
L21V | 2.66 | 2.53 | 
L21S | 3.23 | 2.31 | 
L21I | 2.56 | 1.68 | 
L21W | 2.9 | 1.92 | 
L21Q | 3.42 | 2.14 | 
L21K | 3.1 | 2.07 | 
L21H | 2.92 | 1.22 | 
D14G | 2.23 |  | 
D14K | 2.25 | 2.14 | 
D14Y | 2.29 |  | 

Variant | protein stability index [1] | protein stability index [2] | protein stability index [3]
D14T |  | 3.55 | 
D14W | 1.97 | 1.87 | 
D14C | 2.5 | 1.99 | 
D14H |  | 2.62 | 
D14E | 2.5 |  | 
D14S | 2.23 | 2.34 | 
D14N | 2.11 | 2.13 | 
D14A | 2.52 | 2.35 | 
D14R | 2 | 2.48 | 
D14V | 2.27 |  | 
D14F | 1.99 | 1.83 | 
D14Q | 2.45 | 2.61 | 
D14L | 2.02 | 2.33 | 
D14I | 1.8 | 3.58 | 
D14M | 2.29 | 3.39 | 
H13N | 2.39 | 1.91 | 
H13P |  | 2.23 | 
H13Y | 2.5 | 2.08 | 
H13V | 2.33 | 1.99 | 
H13T | 2.46 | 2.38 | 
H13M | 2.33 | 3.31 | 
H13W | 2.4 | 1.65 | 
H13R | 2.21 |  | 
H13L | 2.73 | 2.11 | 
H13K | 2.33 | 2.31 | 

Variant | protein stability index [1] | protein stability index [2] | protein stability index [3]
H13I | 2.39 | 2.16 | 
H13Q | 2.59 | 1.89 | 
H13G | 2.67 | 1.73 | 
H13S | 2.5 | 2.59 | 
R4Y |  | 2.16 | 
R4N |  | 2.64 | 
R4H |  | 2.76 | 
R4D |  | 2.54 | 
R4P |  | 2.6 | 
R4S |  | 2 | 
E18S | 2.19 | 2.32 | 
E18L | 2.55 | 2.29 | 
E18D |  | 2.6 | 
E18A | 2.37 | 1.58 | 
E18Q | 2.7 | 1.93 | 
E18T | 2.72 | 2.2 | 
E18R | 2.35 |  | 
E18N | 2.44 | 2.84 | 
E18C | 2.85 | 2.46 | 
E18G | 2.48 |  | 
E18K | 1.95 | 3.01 | 
E18W | 2.61 |  | 
E18V | 2.58 | 2.14 | 
E18F | 2.12 | 3.33 | 
E18H | 2.32 | 3.57 | 

Variant | protein stability index [1] | protein stability index [2] | protein stability index [3]
E18I | 2.5 | 2.05 | 
E18P |  | 2.79 | 
E18Y | 2.22 | 2.08 | 
E18M | 2.15 | 2.24 | 
A5Y |  | 2 | 
A5R |  | 1.68 | 
A5P |  | 2.3 | 
T8P |  | 2.14 | 
H16S | 2.54 | 2.61 | 
H16P |  | 2.78 | 
H16E | 3.25 | 2.84 | 
H16D | 2.64 | 2.29 | 
H16F | 2.65 | 2.67 | 
H16A | 2.9 | 2.52 | 
H16K | 2.81 | 1.86 | 
H16Q | 2.77 | 2.17 | 
H16R | 2.34 | 2.24 | 
H16M | 2.56 | 2.2 | 
H16N | 2.81 | 2.06 | 
H16C | 2.66 | 2.44 | 
H16W | 2.32 |  | 
H16L | 2.61 | 2.4 | 
H16V | 2.98 | 2 | 
H16Y | 2.58 | 2.61 | 
H16G | 2.64 | 1.99 | 

Variant | protein stability index [1] | protein stability index [2] | protein stability index [3]
H16I | 2.87 | 1.65 | 
H16T | 2.69 | 2.58 | 
V6Q |  | 2.21 | 
V6W |  | 3.53 | 
V6H |  | 1.83 | 
V6T |  | 1.79 | 
V6E |  | 2.26 | 
S7E |  | 2.32 | 
S7K |  | 2.62 | 
S7A |  | 1.29 | 
S7P |  | 2.54 | 
S2G |  | 2.21 | 
S2P |  | 1.93 | 
P23I | 2.44 |  | 
P23V | 3.07 | 2.19 | 
P23S | 3.56 | 2.77 | 
P23Y |  | 2.07 | 
P23C | 3.58 | 2.32 | 
P23E | 4.61 | 3.77 | 
P23Q |  | 2.84 | 
P23D | 4.52 | 4.48 | 
P23H | 3.81 | 3.59 | 
P23R | 3.16 | 2.45 | 
P23L | 3.24 | 2.66 | 
P23A | 3.09 | 2.23 | 

Variant | protein stability index [1] | protein stability index [2] | protein stability index [3]
P23K |  | 2.9 | 
P23G | 3.75 | 2.55 | 
P23F | 3.35 | 2.41 | 
P23M | 3.17 | 2.12 | 
P23T | 3.02 | 1.75 | 
P23N | 4.23 | 3.49 | 
P23W | 2.97 | 2.19 | 
D9H |  | 1.85 | 
D9T |  | 4.07 | 
D9I |  | 2.76 | 
D9Q |  | 3.63 | 
P11H |  | 2.62 | 
D17S | 2.31 | 2.78 | 
D17P |  | 2.96 | 
D17Q | 2.2 | 2 | 
D17L | 2.54 | 2.72 | 
D17T | 2.42 | 2.33 | 
D17G | 2.11 | 1.88 | 
D17N | 2.4 |  | 
D17H | 2.21 |  | 
D17M | 2.3 | 4.33 | 
D17R | 2.16 |  | 
D17W | 2.1 | 3.5 | 
D17A | 2.44 | 1.76 | 
D17Y | 2.17 | 3.33 | 

Variant | protein stability index [1] | protein stability index [2] | protein stability index [3]
D17I | 2.57 | 2.8 | 
D17C | 2.46 | 2.45 | 
D17V | 2.33 | 2.93 | 
D17E | 2.66 | 2.59 | 
D17K | 2.4 |  | 
D17F | 2.21 | 3.35 | 
H12T |  | 3.57 | 
A2F |  |  | 3.22
A2E |  |  | 2.06
A2K |  |  | 2.38
A2R |  |  | 2.37
A2L |  |  | 2.56
A2Q |  |  | 2.37
A2G |  |  | 2.72
A2M |  |  | 2.68
A2T |  |  | 3.3
A2D |  |  | 2.56
A2N |  |  | 3.27
A2I |  |  | 1.92
A2P |  |  | 2.49
A2C |  |  | 3.03
A2S |  |  | 3.1
A2H |  |  | 2.74
M1K |  |  | 2.03
M1Q |  |  | 1.76

Variant | protein stability index [1] | protein stability index [2] | protein stability index [3]
M1P |  |  | 2.72
M1R |  |  | 2.48
M1V |  |  | 2.12
M1C |  |  | 2.59
M1S |  |  | 2.15
M1F |  |  | 2.74
M1H |  |  | 2.59
M1T |  |  | 2.27
M1Y |  |  | 2.09
M1I |  |  | 2.51
M1D |  |  | 3.17
M1E |  |  | 2.12
M1G |  |  | 3.23
M1W |  |  | 2.52
S3A |  |  | 2.39

Source: the supplement of paper PMC10567573
